Results reported in paper PMC11376382.

Assays:
[1] = molecular target: 3×HA-FKBP-CUL1 (human | Cyanidioschyzon merolae)
[2] = molecular target: 3×HA-FKBP-SKP1 (human | Cyanidioschyzon merolae)

half-life (t1/2) of mVenus-FRB in the mV^RD-CUL1 strain after the addition of 500 nM rapamycin (the bridging compound), immunoblot time course [1]: 30 min | half-life (t1/2) of mVenus-FRB in the mV^RD-SKP1 strain after the addition of 500 nM rapamycin (the bridging compound), immunoblot time course [2]: 46 min
Substance: mVenus-FRB (domain or fragment)
